Patent US20250236683A1 (PHARMA FOODS INTERNATIONAL, published 2025)

Target: T1, human PAD2 protein (human, UniProt Q9Y2J8 1-665)
T1 construct: also called Peptidylarginine deiminase 2; Peptidyl arginine deiminase type-2
Assay: SPR (Biacore 8K), antibody captured on Protein A chip, human PAD2 as analyte, single-cycle, 1:1 model
Method: To evaluate the binding affinity of each anti-PAD2 antibody for human PAD2 protein, the dissociation constant (KD) was measured using a surface plasmon resonance system Biacore 8K (Cytiva). Series S Sensor Chip Protein A (Cytiva) was used as the sensor chip. HBS-EP+ buffer was used as the running buffer. The test antibody was prepared at 0.8 μg/mL by using the running buffer to make a ligand solution. The ligand solution was added to the flow cell at a flow rate of 10 μL/min for 60 seconds, and the flow cell without the ligand solution was used as a reference cell. The running buffer was used to prepare human PAD2 protein from several hundred pM to several tens of nM to make each analyte solution. The running buffer was also used as a blank solution. The blank solution or analyte solution was added at a flow rate of 30 μL/min for 120 seconds by using the single-cycle method, and the dissociation time was set to 1200 seconds. The sensorgram of the reference cell was subtracted from the sensorgram of the flow cell with the ligand when the blank solution or analyte solution was added. In addition, the sensorgram when the blank solution was added was subtracted from the sensorgram when the analyte solution was added, and then used for analysis. Biacore™ Insight Evaluation Software (Cytiva) was used to calculate binding parameters while using the 1:1 binding model.

T1 sequence (Q9Y2J8 whole entry): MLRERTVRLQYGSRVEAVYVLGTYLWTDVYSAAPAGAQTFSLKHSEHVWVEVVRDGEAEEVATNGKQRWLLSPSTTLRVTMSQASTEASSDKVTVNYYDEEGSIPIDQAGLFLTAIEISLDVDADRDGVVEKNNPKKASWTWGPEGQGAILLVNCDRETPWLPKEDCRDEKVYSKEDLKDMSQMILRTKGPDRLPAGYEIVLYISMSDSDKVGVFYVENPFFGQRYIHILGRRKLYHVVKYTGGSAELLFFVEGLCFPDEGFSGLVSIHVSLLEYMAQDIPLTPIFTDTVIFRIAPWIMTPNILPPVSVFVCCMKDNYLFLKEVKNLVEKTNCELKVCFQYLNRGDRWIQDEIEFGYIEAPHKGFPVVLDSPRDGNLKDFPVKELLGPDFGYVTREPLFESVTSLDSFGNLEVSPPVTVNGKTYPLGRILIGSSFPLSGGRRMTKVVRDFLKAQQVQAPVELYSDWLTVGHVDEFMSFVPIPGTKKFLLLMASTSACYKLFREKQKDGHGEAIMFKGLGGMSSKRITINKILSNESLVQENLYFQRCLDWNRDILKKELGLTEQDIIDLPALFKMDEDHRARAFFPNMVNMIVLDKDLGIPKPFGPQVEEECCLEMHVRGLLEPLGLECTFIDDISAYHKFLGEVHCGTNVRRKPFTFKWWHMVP

Row | binding result | Binder
1 | binds | PK1-16 (antibody, human IgG1, lambda, V domains shown, Chicken/human chimeric IgG1 expressed in 293 cells; also called anti-PAD2 antibody) VH: AVTLDESGGGLQTPGGGLSLVCKASGFTFRSYAMYWVRQAPGKGLEWLAGISSSGRYTGYAPAVKGRATISRDNGQSTVRLQLSNLRAEDAGTYYCAKDVYDSWTYANRIDAWGHGTEVIVSS VL: ALTQPSSVSANPGETVKITCSGGGRRGYYGWYQQKSPGSAPVTVIYNNDERPSNIPSRFSGFKSGSTATLTITGVQAEDEAVYYCGSGDTTTDSGIFGAGTTLTVLG
2 | binds | CK1-10 (antibody, human IgG1, lambda, V domains shown, Chicken/human chimeric IgG1 expressed in 293 cells; also called anti-PAD2 antibody) VH: AVTLDESGGGLQTPGRALSLVCKASGFTFSDYGMGWMRQAPGKGLEWVGAISNRGSHTYYGAAVKGRATISRDNGQSTVRLQLNNLRAEDTGTYYCAKDAGTCISSYGFSCVSAASIDAWGHGTEVIVSS VL: ALTQPSSVSANLGGTVKITCSGGSGSYGGSYYYGWYQQKAPGSAPVTLIYDNTNRPSNIPSRFSGSKSGSTATLTITGVQADDEAVYFCGSIDSISDADIFGAGTTLTVLG
